From paper PMC5149022, “A ^99mTc-tricine-HYNIC-labeled Peptide Targeting the Melanocortin-1 Receptor for Melanoma Imaging” (Iranian Journal of Pharmaceutical Research : IJPR, 2016)
Bridge positions count the residues as written; N and C are the ends. Square brackets hold non-standard residues; d marks the D form. Peptide text beside a SMILES is read from it. * marks the point of attachment. HYNIC = NNc1ccc(C(=O)*)cn1; Nle = CCCC[C@H](N)C(=O)O; GABA = NCCCC(=O)O

Legend:
[1] = tested on: B16/F10 tumor (MC1 receptor); test: Biodistribution in B16/F10 tumor bearing nude mice; format: in vivo; conditions: nude mice with B16/F10 tumor
Method: Animal experiments were performed in compliance with the regulations of our institution and with generally accepted guidelines governing such work.Groups of three nude mice were used in each experiment. A suspension of B16/F10 cells (1×10^7) in PBS was subcutaneously injected in the right flank of each nude mice. Seven days after inoculation, the tumors were inducted and then, ^99mTc-tricine-HYNIC-peptide (20 MBq) was injected via a femoral vein. Also a group of three animals were injected with peptide ([…]) in saline (0.9%; […]) as a co-injection with the radiopeptide (blocked animals). After 1, 4 and 24 h, the groups of mice were killed, then the organs of interest were excised, weighed and counted in the gamma counter. The percentage of the injected dose per gram (% ID/g) was calculated for each tissue. At 4 h after injection, accumulation of the tracer in tumor area was also assessed by planar scintigraphy under ether anesthesia.

[2] = Protein binding by precipitation method; format: in vitro ADME
Method: Protein binding of radiolabeled peptide was measured by precipitationmethod resulting 37%forradioconjugate. Plasma proteins binding could be due to transchelation, which is possible with exchange reactions among co-ligands and the possible action of HYNIC as a mono- or bi-dentated ligand complexing ^99mTc.

[3] = Stability of radiolabeled peptide in aqueous solution; format: physicochemical
Method: (§1) The stability of radiolabeled peptide in aqueous solution was evaluated by incubation of the reaction mixture at ambient temperature (25 °C) up to 24 h. Stability in human serum at 37 °C was tested in parallel after adding 100 μL of reaction mixture to 1mL of fresh human serum. The incubation mixtures were sampled at 1,6 and 24 h time points. Serum samples (100–200 μL) were treated with ethanol (200–400 μL) and centrifuged (4000 g, 5 min, 4 °C) to precipitate the serum proteins.20–100 μL aliquots from the supernatant were separated to assess the degradation of ^99mTc labeled peptide by RP-HPLC. 100 μL aliquots from the 25 °C incubated mixture were passed from a 0.22 μ filter to eliminate the probable ^99mTc colloids and then, 5–20 μL of filtrate were analyzed by RP-HPLC as well.

[4] = Stability of radiolabeled peptide in human serum; format: in vitro ADME; conditions: fresh human serum, 37 °C, RP-HPLC with gamma detector
Method: as §1

CCCC[C@H](NC(=O)CCCNC(=O)c1ccc(NN)nc1)C(=O)N[C@H]1CC(=O)NCCCC[C@@H](C(N)=O)NC(=O)CNC(=O)[C@H](Cc2c[nH]c3ccccc23)NC(=O)[C@H](CCCNC(=N)N)NC(=O)[C@@H](Cc2ccccc2)NC(=O)[C@H](Cc2c[nH]cn2)NC1=O [^99mTc-tricine-HYNIC-peptide, ^99mTc-tricine-HYNIC-GABANle-CycMSHhept, metal not drawn] ({HYNIC-GABA}-[Nle]DH[dF]RWGK-NH2; lactam 2-8)
kidneys uptake ([1]; 20 MBq via femoral vein, 1 h after injection, n = 3): 7.38 ± 0.56 % ID/g
tumor uptake ([1]; 20 MBq via femoral vein, 4 h, n = 3): 4.51 ± 0.11 % ID/g
blood uptake ([1]; 1 h, n = 3): 1.26 ± 0.13 % ID/g
intestines uptake ([1]; 1 h, n = 3): 0.65±0.05 % ID/g
liver uptake ([1]; 1 h, n = 3): 1.48 ± 0.08 % ID/g
tumor uptake, blocked group ([1]; co-injection of cold peptide, time not stated): 2.33 % ID/g
liver uptake ([1]; time not stated): lower than 2.0 % ID/g
protein binding [2]: 37%
labeling yield remaining after incubation in aqueous solution ([3]; reaction mixture, ambient temperature (25 °C), 24 h, RP-HPLC with gamma detector): 75%
stability in aqueous solution (release of 99mTcO4- or peptide degradation) ([3]; reaction mixture, ambient temperature (25 °C), up to 6 h, 0.22 μ filtered, RP-HPLC with gamma detector): no significant release of ^99mTcO4^− or peptide degradation
radiochemical stability ([3]; up to 6 h post labeling): excellent radiochemical stability
labeling yield remaining after incubation in human serum ([4]; 24 h): 75%
stability in human serum (release of 99mTcO4- or peptide degradation) ([4]; 100 μL reaction mixture in 1 mL serum, up to 6 h, ethanol precipitation): no significant release of ^99mTcO4^− or peptide degradation
